The values below come from patent US20060140870A1, “Method for assessing tumor response to cancer treatment” (General Electric Company, priority 2004, published 2006).

The nature of the data set: Relaxivity (T1) of the contrast agent as a measure of molecular conformation. Format: physicochemical. The note with it: low for an elongated conformation, high for a globular (folded) one.

“Polylysine-Gd-DTPA [Gd- DTPA polylysine]”: the relaxivity entry is reported as “about 8 sec.−1 mM−1”.

Turning to albumen, the relaxivity entry was “about 15 sec.−1 mM−1”.
